Measurements taken from publication PMC3078076.

Key:
Human HP1β CSD (human) [1] = assay: SEC
Human HP1β CSD (human) [2] = assay: crystal structure

Which stoichiometry N (Human HP1β CSD (human) [1]) does the source give for Human HP1β CSD (domain or fragment) here?
The stoichiometry N was 2.

And the stoichiometry N (Human HP1β CSD (human) [2])?
Its stoichiometry N is 2.

How did the stoichiometry N (Sgo1P1 per two HP1β CSD) (Human HP1β CSD (human) [1]) turn out when “Sgo1P1 (from UniProt Q5FBB7 425-443) (peptide)” was run?
Its stoichiometry N (Sgo1P1 per two HP1β CSD) is 1.

And the stoichiometry N (Sgo1P1 peptide per CSD dimer) (Human HP1β CSD (human) [2])?
Its stoichiometry N (Sgo1P1 peptide per CSD dimer) is 1.
